The nanobody polyreactivity screen of Harvey et al. (2022)

Experiment: yeast display, Sf9 membrane polyspecificity reagent, FACS + sequencing; frameworks hold sequencing errors
Method in brief: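 In a synthetic yeast display library (Saccharomyces cerevisiae BJ5465), nanobody expression was induced with galactose for 36–48 hours. FACS gates were set low and high (top ~1%) using anti-HA fluorescence for expression and streptavidin fluorescence for binding of the Sf9 membrane reagent. Each polyreactivity label is drawn from the gate of origin.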

| Sequence | polyreactivity (PSR sort gate) |
| --- | --- |
| QVQLVESGGGLVQAGGSLRLSCAASGSTFRGNAMGWYRQAPWKEREFVASISRRGGRTNYADSVKGRFTISRDNAKNTVYLQMNSLKPEDTAVYYCAAGRYRYKYRYFTAWYGYWGQGTQVTVSS | high polyreactivity |
| QVQLVESGGGLVQAGGSLRLSCAASGSTFRGYAMGWYRQAPGKEREFVAAISRRGGTTYYADSVKGRFTISRDNAKNTVYLQMNSLKPEDTAVYYCNKVYYQHYLAFDYWGQGTQVNVSS | high polyreactivity |
| QVQLVESGGGLVQAGGSLRLSCAASGSTFRGYAMGWYRQAPGKERELVAAISRSGGSTYYADSVKGRFTISRDNAKNTVYLQMNSLKPEDTAVYYCNARSSKRSSRGYDYWGQGTQVTVSS | high polyreactivity |
| QVQLVESGGGLVQAGGSLRLSCAASGSTFRGYAMGWYRQAPGKERELVAAITSDGSTNYADSVKGRFTISRDNAKNTVYLQMNSLKPEDTAVYYCNVKATRKWWDRRVYRYNYWGQGTQVTVSS | high polyreactivity |
| QVQLVESGGGLVQAGGSLRLSCAASGSTFRGYAMGWYRQAPGKERELVAASTWSGVTTYYADSVKGRFTISRDNAKNNVYLQMHSLKPEDTAVYYCATGTLYSDGAIYGYWGQGTQVTVSS | low polyreactivity |
| QVQLVESGGGLVQAGGSLRLSCAASGSTFRGYAMGWYRQAPGKERELVAGITKRGGSTYYADSVKGRFTISRDNAKNTVYLQMNSLKPEDTAVYYCAAGKHRQAYEHDYWGQGTQVTVSS | high polyreactivity |
| QVQLVESGGGLVQAGGSLRLSCAASGSTFRHYAMGLYRQAPGKERELVAAISSTGGSTYYADSVKGRFTISRDNAKNTVYLQMNSLKPEDTAVYYCAASPYGFRRNYYWGQGTQVTVSS | high polyreactivity |
| QVQLVESGGGLVQAGGSLRLSCAASGSTFRHYAMGWYRQAPGKERELVAAITRRTVSTYYADSVKGRFTISRDNAKNSVYLQMNSLKPEHTAVYYCAADYWYSGYDYWGQGTQVTVSS | low polyreactivity |
| QVQLVESGGGLVQAGGSLRLSCAASGSTFRINAMGWYRQAPGKERELVAAISRSGSITYYADSVKGRFTISRDNAKNTVYLQMNSLKPEDTAVYYCAAKSRKGGDYWGQGTQVTVSS | high polyreactivity |
| QVQLVESGGGLVQAGGSLRLSCAASGSTFRIYAMGWYRQAPGKERELVARISWNGGRTYYADSVKGRFTISRDNAKNTVYLQMNSLKTEDTAVYYCNALVPPGYDYWGQGTQVTVSS | high polyreactivity |
| QVQLVESGGGLVQAGGSLRLSCAASGSTFRIYAMGWYRQAPGKERELVASISSGGRTYYADSVKGRFTISRDNAKNTVYLQMNSLKPEDTAVYYCNARHYYIWWRSPTRTAMNYWGQGTQVTVSS | high polyreactivity |
| QVQLVESGGGLVQAGGSLRLSCAASGSTFRLYAMGGSRQAPGKERELVAAIRSGGNTNNADSVKGRFTISRDNAKHTVYLQMNSLKPEDTAVYYCNGFSGQLPVPNYDYWGQGTQVTVSS | high polyreactivity |
| QVQLVESGGGLVQAGGSLRLSCAASGSTFRLYAMGWYRQAPGEERELVASITFSDSITSYADSVKGRFTISRDNAKNTVYLQMNSLKPEDTAVYYCDKDTSYENVVYTFDYDYWGQGTQVTVSS | low polyreactivity |
| QVQLVESGGGLVQAGGSLRLSCAASGSTFRLYAMGWYRQAPGKEREFVAAISFRGGSTYYADSVKGRFTISRDNAKNTVYLQMNSLKPEDTAVYYCAADYWTSADPRNIIKYDYWGQGTQVTVSS | high polyreactivity |
| QVQLVESGGGLVQAGGSLRLSCAASGSTFRLYAMGWYRQAPGKERELVAAISYSGGSTYYADSVKGRFTISRDNAKNTVYLQMNSLKPEDTAVYYCNAVRRHGGYYDYGYWGQGTQVTVSS | high polyreactivity |
| QVQLVESGGGLVQAGGSLRLSCAASGSTFRLYAMGWYRQAPGKERELVAVISRSGGRTYADSVKGRFTISRDNAKNSVYFQMNSLKPEDTAVYYCAKARHKSATYTHDSWGQGTQVTVSS | high polyreactivity |
| QVQLVESGGGLVQAGGSLRLSCAASGSTFRLYTMGWYRQAPGKERELVASIRGSGGRTYYADSVKGRFTISRDNAKNTVYLQMNSLKPEDTAVYYCNAESYSTWSFGHRYEYDYWGQGTQVTVSS | low polyreactivity |
| QVQLVESGGGLVQAGGSLRLSCAASGSTFRPNAMGWYRQAPGKERELVATIRTSGGTTYYADSVKGRFTISRDNAKNTVYLQMNSLKPEDTAVYYCAATKFGSSYDYWGQGTQVTVSS | low polyreactivity |
| QVQLVESGGGLVQAGGSLRLSCAASGSTFRPYAMGWYRQAPGKERELVAAITSGGNTYYADSVKGRFTISRDNAKNTVYLQMNSLKPEDTAVYYCAARPYYYIVRGTEYDYWGQGTQVTVSS | high polyreactivity |
| QVQLVESGGGLVQAGGSLRLSCAASGSTFRPYAMGWYRQAPGKERELVARITGSGDSTYYADSVKGRFTISRDNAKNTVYLQMNSLKPEDTAVYYCAREFDYSLSGFDYWGQGTQVTVSS | low polyreactivity |
| QVQLVESGGGLVQAGGSLRLSCAASGSTFRRNAMGWYRQAPGKERELVAAITSGGSTYYADSVKGRFTISRDNAKNTVYLQMNSLKPEDTAVYYCNRLYRWKKPLDYDYWGQGTQVTVSS | high polyreactivity |
| QVQLVESGGGLVQAGGSLRLSCAASGSTFRRNAMGWYRQAPGKERELVAAITWRGTSTYYADSVKGRFTISRDNAKNTVYLQMNSLKPEDTAVYYCAADRFVRYWGQGTQVTVSS | high polyreactivity |

| Sequence | polyreactivity (PSR sort gate) |
| --- | --- |
| QVQLVESGGGLVQAGGSLRLSCAASGSTFRRYAMGWYRPAPGKERELVAAISTRGGSTYYADSVKGRFTISRDNAKNTVYLQMNSLKPEDTAVYYCAADEPKYTSSSSRRYGYWGQGTQVTVSS | high polyreactivity |
| QVQLVESGGGLVQAGGSLRLSCAASGSTFRRYAMGWYRQAPGKERELGAAISRSGGTTYYADSVKGRFTISRDNAKNTVYLQMNSLKPEDTAVYYCNARYPVVRYDYWGQGTQVTVSS | high polyreactivity |
| QVQLVESGGGLVQAGGSLRLSCAASGSTFRRYAMGWYRQAPGKERELVATITKRGGSTYYADSVKGRFTISRDNAKNTVYLQMNSLKPEDTAVYYCAADSAYWTYEYWGQGTQVTVSS | high polyreactivity |
| QVQLVESGGGLVQAGGSLRLSCAASGSTFRRYAMGWYRQAPWKERELVAAITRRGITYYADSVKGRFTISRDNAKNTVYFQMNSLKPEDTAVYYCAATTFGPYALYPRYYYWGQGTQVTVSS | high polyreactivity |
| QVQLVESGGGLVQAGGSLRLSCAASGSTFRRYGMGWYRQAPGKEREWVAAISKGGTRTYYADSVKGRFTISRDNAKNTVYLQMNSLKPEDTAVYYCAAAGAPSSTPQKEYYWGQGTQVTVSS | high polyreactivity |
| QVQLVESGGGLVQAGGSLRLSCAASGSTFRSNAMGWYRPAPGKERELVAAISSRVGTTYYADSVKGRFTISRDNAKNTVYLQMNSLKPEDTAVYYCAAQGWRYYRTVVPMDYWGQGTQVTVSS | low polyreactivity |
| QVQLVESGGGLVQAGGSLRLSCAASGSTFRTNTMGWYRQAPGKERELVAAITGTGGSTYYADSVKGRFTISRDNAKNTVYLQMNSLKPEDTAVYYCAKRYYRWRRDYSWGQGTQVTVSS | high polyreactivity |
| QVQLVESGGGLVQAGGSLRLSCAASGSTFRTYAMGWYRQAPGKERELVAAISWSGGITYDADSVKGRFTISRDNAKNTVYLQMNSLKPEDTAVYFCDARLASWPLTYDFQWYEYWGQGTQVTVSS | low polyreactivity |
| QVQLVESGGGLVQAGGSLRLSCAASGSTFRVNAMGWYRQAPGKEREFVAGISFGGGSTYYADSVKGRFTISRDNAKNTVYLQMNSLKPEDTAVYYCNARGKGSGAVRYNYWGQGTQVTVSS | high polyreactivity |
| QVQLVESGGGLVQAGGSLRLSCAASGSTFRVNVMGLYRQAPGKERELVAAIDSGGSTYYADSVKGRFTISRDNAKNTVYLQMNSLKPEYTAVYYCNSRVDSPSPYDYWGQGTQVTVSS | low polyreactivity |
| QVQLVESGGGLVQAGGSLRLSCAASGSTFRVYAMGCYRQAPGKERELVAAISGSGGSTYYADSVKGRFTISRDNAKNTVYLQMNSLKPEDTAVYYCAARSWYTEYYWGQGTQVTVSS | high polyreactivity |
| QVQLVESGGGLVQAGGSLRLSCAASGSTFRVYAMGWYRQAPGKERELVAAITRSGGRTHYADSVKGRFTISRDNAKNTVYLQMNSLKPEDTAVYYCAARFYYTKPEDYYWGQGTQVTVSS | high polyreactivity |
| QVQLVESGGGLVQAGGSLRLSCAASGSTFRWNAMGWYRQAPGKERELVAAISNGGSTNYADSVKGRFTISRDNAKNTVYLQMNSLKPEDTAVYYCATDGWYGQHYYDYDFDYYYWGQGTQVTVSS | low polyreactivity |
| QVQLVESGGGLVQAGGSLRLSCAASGSTFRWNAMGWYRQAPGKERELVATITWGGGSTYYADSVKGRFTISRDNAKNTVYLQMNSLKPEDTAVYYCARRQRARYSYYQYNYWGQGTQVTVSS | high polyreactivity |
| QVQLVESGGGLVQAGGSLRLSCAASGSTFRWYAMGWYRQAPGKERELVASITWSGGGTYYADSVKGRFTISRDNAKNTVYFQMNSLKPEDTAVYYCNRRTWRYETRGDDYWGQGTQVTVSS | high polyreactivity |
| QVQLVESGGGLVQAGGSLRLSCAASGSTFRYNPMGWYRQAPGNERELVAAISSGGYTNYADSVKGRFTISRDNAKNTVYLQMNSLKPEDTAVYYCAARYYPWKVNRFSYWYDYWGQGTLVTVSS | high polyreactivity |
| QVQLVESGGGLVQAGGSLRLSCAASGSTFRYNTMGWYRQAPGKERELVAAINISSSSTYYADSVKGRFTISRDNAKNTVYLQMNSLKPEDTAVYYCAKRDFVPIATDENDDYWGQGTQVTVSS | low polyreactivity |
| QVQLVESGGGLVQAGGSLRLSCAASGSTFRYNTMGWYRQAPGKERELVAGITSGGGRTYADSVKGRFTISRDNAKNTVYLQMNSLKPEDTAVYYCAAGKYYFLSRYDSWGQGTQVTVSS | low polyreactivity |
| QVQLVESGGGLVQAGGSLRLSCAASGSTFRYNTMGWYRQAPGTERELVATISWRGGRTYYADSVKGRFTISRDNAKNTVYLQMNSLKPEDTAVYYCASIATVPRDYGGNYWGQGTQVTVSS | low polyreactivity |
| QVQLVESGGGLVQAGGSLRLSCAASGSTFRYNVMGWYRQAPGKERDLVAAITRRGSRTYYADSVKGRFTISRDNAKNTVYLQMNSLKPEDTAVYYCNKYSLSVPANDDYWGQGSQVTVSS | high polyreactivity |
| QVQLVESGGGLVQAGGSLRLSCAASGSTFRYYALGWYRQAPGKERELVASISIGGGPTYYADSVKGRFTISRDNAKNTVYLQMHIQKPEDTAVYYCAAERTIRAARPVVRTFDYWGHGTQVTVSS | low polyreactivity |
